“Also recorded” adds a separate entry of the source. Where a SMILES comes first, the peptide text is derived from it. Bridges are numbered along the chain shown (N, C = ends). Where no end group is shown, it is not given here.
Tests used:
[1] = molecular target: integrin αvβ6 (ITGαvβ6) as expressed on human carcinoma cell lines and tumor tissue sections (human) (UniProt P06756); assay: peptide competing with 125I-SFITGv6 on HNO97 cells, 60 min
[2] = molecular target: ITGαvβ3 (Homo sapiens, UniProt P05106+P06756); assay: Surface plasmon resonance assay (SPR), ITGαvβ3; type: binding; details: SPR
ITGαvβ3, sequence (P06756 31-992 limits assumed): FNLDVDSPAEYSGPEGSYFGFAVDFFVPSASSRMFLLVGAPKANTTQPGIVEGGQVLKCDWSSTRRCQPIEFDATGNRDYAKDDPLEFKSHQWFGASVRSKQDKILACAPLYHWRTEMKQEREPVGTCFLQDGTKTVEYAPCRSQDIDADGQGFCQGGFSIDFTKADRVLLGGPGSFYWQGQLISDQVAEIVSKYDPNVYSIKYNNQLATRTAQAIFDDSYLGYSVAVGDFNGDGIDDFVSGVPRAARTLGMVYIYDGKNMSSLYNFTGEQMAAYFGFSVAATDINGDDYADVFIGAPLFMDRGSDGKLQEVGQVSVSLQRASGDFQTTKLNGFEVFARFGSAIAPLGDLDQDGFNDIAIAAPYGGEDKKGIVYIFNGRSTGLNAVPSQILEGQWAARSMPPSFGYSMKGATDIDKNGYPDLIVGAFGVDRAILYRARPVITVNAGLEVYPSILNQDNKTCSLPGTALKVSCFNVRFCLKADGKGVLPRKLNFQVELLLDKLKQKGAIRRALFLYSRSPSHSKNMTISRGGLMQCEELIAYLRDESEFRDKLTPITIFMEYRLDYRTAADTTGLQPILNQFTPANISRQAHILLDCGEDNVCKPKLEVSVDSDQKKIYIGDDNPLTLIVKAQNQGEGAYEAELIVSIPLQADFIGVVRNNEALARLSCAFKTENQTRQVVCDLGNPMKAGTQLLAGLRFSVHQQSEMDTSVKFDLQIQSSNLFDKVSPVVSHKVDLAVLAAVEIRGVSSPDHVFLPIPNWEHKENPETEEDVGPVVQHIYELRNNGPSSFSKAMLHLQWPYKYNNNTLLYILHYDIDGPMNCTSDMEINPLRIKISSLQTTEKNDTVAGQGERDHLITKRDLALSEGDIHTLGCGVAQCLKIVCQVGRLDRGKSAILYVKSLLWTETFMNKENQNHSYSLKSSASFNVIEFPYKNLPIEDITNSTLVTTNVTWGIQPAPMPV
ITGαvβ3, sequence (P05106 27-718 limits assumed): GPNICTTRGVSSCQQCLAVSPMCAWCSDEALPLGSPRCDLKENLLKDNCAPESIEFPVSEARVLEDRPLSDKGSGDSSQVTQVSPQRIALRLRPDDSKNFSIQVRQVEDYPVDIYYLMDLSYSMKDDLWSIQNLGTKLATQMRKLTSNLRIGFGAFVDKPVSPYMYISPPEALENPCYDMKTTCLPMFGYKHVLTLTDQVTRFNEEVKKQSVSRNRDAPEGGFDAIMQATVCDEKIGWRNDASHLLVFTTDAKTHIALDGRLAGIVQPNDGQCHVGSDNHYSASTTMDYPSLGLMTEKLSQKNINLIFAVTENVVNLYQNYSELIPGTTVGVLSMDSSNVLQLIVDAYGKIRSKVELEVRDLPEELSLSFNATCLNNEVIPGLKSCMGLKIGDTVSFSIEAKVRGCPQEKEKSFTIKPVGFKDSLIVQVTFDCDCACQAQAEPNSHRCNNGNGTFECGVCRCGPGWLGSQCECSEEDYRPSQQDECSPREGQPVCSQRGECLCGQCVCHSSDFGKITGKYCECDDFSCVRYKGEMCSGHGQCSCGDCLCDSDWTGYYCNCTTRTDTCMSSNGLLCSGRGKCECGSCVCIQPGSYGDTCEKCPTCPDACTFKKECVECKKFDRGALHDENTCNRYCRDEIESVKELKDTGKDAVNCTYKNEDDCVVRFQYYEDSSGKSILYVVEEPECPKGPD
Description: (§1) Assessment of the binding affinity was performed on a BiaCore X100 (GE Healthcare). To avoid denaturation of the heterodimer during amide activation ITGαvβ6 and ITGαvβ3, respectively, were used as analytes and SFITGv6 was immobilized at its N-terminus on a C1 sensor Chip (BR-1005-35, GE Healthcare) using a manual amine coupling protocol. Briefly, after activation of the sensor chip surface with a solution of EDC 0.4 M/NHS 0.1 M for 5 min a 100 μM peptide dissolved in HBS-EP running buffer (0.1 M HEPES, 30 mM EDTA, 1.5 M NaCl, 0.5% surfactant P20, pH 7.2) was immobilized with a contact time of 30 sec until a loading level of 18 response units (RU) was obtained. […] The SPR-sensogram data were evaluated with the BiaCore evaluation software. The dissociation constant (KD) was determined by a 1:1 Langmuir model fit of the SPR-sensograms.
as §1, with “SFLAP3” for “peptide”, “to obtain” for “until”, “12” for “18”, “(RU).” for “(RU) was obtained.”, “SPR sensogram” for “SPR-sensogram”, “SPR sensograms.” for “SPR-sensograms.”

[3] = system: HNSCC tumor sections (HNO97 xenograft, HNO444, HNO399, HNO210); assay: Histochemical peptide staining of HNSCC tumor cryosections; parameters: species or system human; details: biotinylated PEG(12)-peptide, 10^-5 M
Description: Staining with the biotinylated PEG(12)-SFITGv6 peptide was performed on acetone-fixed cryosections (5 μm) of tumor tissues after blocking of unspecific binding using the Avidin/Biotin Blocking Kit (SP-2001, Vector Laboratories). A stock solution of the lyophilized peptide was prepared by dilution in 5% aqueous DMSO. Slices were incubated overnight at 4° C. with 10^-5 M peptide concentration in antibody diluent (DAKO). Detection of bound peptide was carried out with the Vectastain Elite ABC Kit (PK-6100, Vector Laboratories) according to manufacturer's protocol. Peptide specificity was ensured by a scrambled (GRD) PEG(12)-SFITGv6 derivate, the somatostatin receptor ligand DOTATOC and negative controls (without peptide or primary antibody) Staining results were assessed by bright field microscopy (BX50) with the SC30 camera and the cell Sense software (all Olympus).
Immunohistochemical stainings were performed by use of the biotinylated PEG(12)-labled peptides (SFITGv6, SFLAP3) on 5 μm acetone-fixed tumor tissue cryosections. To prevent background staining we initially applied the Avidin/Biotin Blocking Kit (SP-2001, Vector Laboratories). The lyophilized peptides were diluted in 5% aqueous DMSO preparing a 1 mM Stock solution. The HNSCC cryosections were incubated with 10^−5 M peptide concentration in antibody diluent (DAKO) at 4° C. overnight. To detect bound peptide the Vectastain Elite ABC Kit (PK-6100, Vector Laboratories) was applied according to manufacturer's protocol. Peptide binding specificity was ensured by use of a peptide derivate (scrambled control) and negative controls (without peptide). Due to instability of the peptide binding staining results were assessed on the same day by bright field microscopy (BX50) with the SC30 camera and the cell Sense software (all Olympus).

[4] = system: HNO399 xenografts; assay: Biodistribution, HNO399 xenografts; type: in vivo, mice
[5] = system: HNO223 xenografts; assay: Biodistribution, HNO223 xenografts; type: in vivo, mice
[6] = Serum stability assay (radio-HPLC); type: in vitro ADME, human; details: radio-HPLC, 37° C., up to 24 hours
Description: Five MBq of the purified ^131I-radiolabeled peptide was incubated in 300 μL human serum at 37° C. After different time intervals (15 min to 24 hours) 20 μL serum was precipitated with 40 μL acetonitrile. The stability of the labeled peptide in the supernatant was monitored by radio-HPLC at selected time points using a chromolith performance RP18ec column (3 mm×100 mm) equipped with a gamma detector (Packard COBRA™ Auto-Gamma, GMI). Separation condition was a gradient of 0% to 60% aqueous acetonitrile supplemented with 0.1% TFA over 10 min with a flow rate of 2 mL/min.

[7] = molecular target: T1, ITGαvβ3 heterodimer (analyte in SPR) (UniProt P06756 31-992; P05106 27-718, limits assumed); assay: SPR (BiaCore X100), peptide immobilised on C1 chip, ITGαvβ3 as analyte, 1:1 Langmuir fit; SPR, αvβ3 as analyte
T1 construct: Soluble heterodimer used as analyte over immobilised peptide; construct not described
T1 sequence (P06756 31-992 limits assumed, chain 1 of 2): as the sequence (P06756 31-992 limits assumed) above
T1 sequence (P05106 27-718 limits assumed, chain 2 of 2): as the sequence (P05106 27-718 limits assumed) above

[8] = molecular target: T2, integrin αvβ6 (ITGαvβ6) as expressed on human carcinoma cell lines and tumor tissue sections (human, UniProt P06756 31-1048; P18564 22-788); assay: competition of unlabeled SFLAP3 with 125I-SFLAP3 on HNO223 cells
T2 construct: whole, on cells; also called ITGAVB6; ITGαvβ6-expressing HNO97 cells
T2 sequence (P06756 31-1048, chain 1 of 2): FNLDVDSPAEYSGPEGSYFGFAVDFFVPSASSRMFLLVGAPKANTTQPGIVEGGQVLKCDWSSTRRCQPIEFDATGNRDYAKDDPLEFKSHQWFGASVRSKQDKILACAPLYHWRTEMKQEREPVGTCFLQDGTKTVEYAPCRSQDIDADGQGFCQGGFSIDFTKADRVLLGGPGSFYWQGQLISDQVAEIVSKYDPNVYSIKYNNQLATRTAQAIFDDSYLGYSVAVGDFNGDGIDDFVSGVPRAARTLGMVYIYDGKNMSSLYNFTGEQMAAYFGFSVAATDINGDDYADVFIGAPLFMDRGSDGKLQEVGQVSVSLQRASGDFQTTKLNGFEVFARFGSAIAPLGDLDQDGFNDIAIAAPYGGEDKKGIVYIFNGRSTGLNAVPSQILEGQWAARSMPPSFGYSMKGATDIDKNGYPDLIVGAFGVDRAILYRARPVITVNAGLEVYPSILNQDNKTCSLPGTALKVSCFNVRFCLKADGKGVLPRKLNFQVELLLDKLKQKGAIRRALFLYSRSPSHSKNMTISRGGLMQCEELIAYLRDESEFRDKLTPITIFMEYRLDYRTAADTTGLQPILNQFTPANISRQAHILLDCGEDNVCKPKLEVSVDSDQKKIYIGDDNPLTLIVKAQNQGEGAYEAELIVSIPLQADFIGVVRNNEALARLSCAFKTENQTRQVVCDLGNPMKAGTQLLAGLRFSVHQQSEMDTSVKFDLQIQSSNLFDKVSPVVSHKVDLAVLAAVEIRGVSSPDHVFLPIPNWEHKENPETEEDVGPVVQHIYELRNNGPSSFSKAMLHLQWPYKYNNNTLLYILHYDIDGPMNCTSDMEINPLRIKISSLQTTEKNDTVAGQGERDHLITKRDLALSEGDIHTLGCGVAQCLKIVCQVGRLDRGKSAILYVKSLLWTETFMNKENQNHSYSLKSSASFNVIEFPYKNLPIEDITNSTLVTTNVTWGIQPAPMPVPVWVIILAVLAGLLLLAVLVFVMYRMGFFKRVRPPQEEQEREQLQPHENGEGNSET
T2 sequence (P18564 22-788, chain 2 of 2): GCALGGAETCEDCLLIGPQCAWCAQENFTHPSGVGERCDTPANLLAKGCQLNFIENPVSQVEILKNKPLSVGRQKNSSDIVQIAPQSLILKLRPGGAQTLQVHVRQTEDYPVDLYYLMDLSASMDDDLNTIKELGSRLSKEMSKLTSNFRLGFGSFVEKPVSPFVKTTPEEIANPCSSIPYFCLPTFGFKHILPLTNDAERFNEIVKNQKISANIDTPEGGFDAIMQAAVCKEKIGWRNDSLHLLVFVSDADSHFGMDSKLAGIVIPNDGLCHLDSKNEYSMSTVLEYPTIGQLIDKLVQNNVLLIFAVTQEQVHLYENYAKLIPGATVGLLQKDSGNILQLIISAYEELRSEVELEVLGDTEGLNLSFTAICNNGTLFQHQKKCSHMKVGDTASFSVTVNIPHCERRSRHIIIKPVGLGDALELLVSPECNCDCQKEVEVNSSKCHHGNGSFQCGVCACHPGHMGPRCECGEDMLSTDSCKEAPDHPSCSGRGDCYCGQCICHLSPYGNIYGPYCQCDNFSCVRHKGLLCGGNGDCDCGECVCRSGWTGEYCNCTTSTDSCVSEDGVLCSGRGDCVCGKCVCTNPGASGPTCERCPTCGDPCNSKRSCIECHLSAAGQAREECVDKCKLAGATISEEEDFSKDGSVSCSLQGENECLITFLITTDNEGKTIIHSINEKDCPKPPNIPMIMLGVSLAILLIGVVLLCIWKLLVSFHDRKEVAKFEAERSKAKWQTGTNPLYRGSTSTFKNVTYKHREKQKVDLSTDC

[9] = molecular target: T1, ITGαvβ3 heterodimer (analyte in SPR); assay: SPR, αvβ3 heterodimer against ITGαvβ6 on immobilised SFLAP3
[10] = molecular target: T2, integrin αvβ6 (ITGαvβ6) as expressed on …; assay: 125I-peptide binding to HNO210 cells, 60 min
[11] = molecular target: T2, integrin αvβ6 (ITGαvβ6) as expressed on …; assay: competition of unlabeled SFLAP3 with 125I-SFLAP3 on HNO399 cells
[12] = molecular target: T2, integrin αvβ6 (ITGαvβ6) as expressed on …; assay: 125I-peptide binding to HNO97 cells, 60 min
[13] = molecular target: T2, integrin αvβ6 (ITGαvβ6) as expressed on …; assay: 125I-peptide binding to HNO199 cells, 60 min
[14] = molecular target: T2, integrin αvβ6 (ITGαvβ6) as expressed on …; assay: unlabeled peptide competing with 125I-SFLAP3 on HNSCC cell lines (HNO97, HNO399, HNO223), mean; mean over HNSCC cell lines
[15] = molecular target: T2, integrin αvβ6 (ITGαvβ6) as expressed on …; assay: competition of unlabeled SFLAP3 with 125I-SFLAP3 on HNO97 cells
[16] = molecular target: T2, integrin αvβ6 (ITGαvβ6) as expressed on …; assay: 125I-peptide binding to HNO223 cells, 60 min
[17] = molecular target: T3, ITGαvβ6 heterodimer (analyte in SPR) (UniProt P06756 31-992; P18564 22-707, limits assumed); assay: SPR (BiaCore X100), peptide immobilised on C1 chip, ITGαvβ6 as analyte, 1:1 Langmuir fit; SPR, ITGαvβ6 as analyte
T3 construct: Soluble heterodimer used as analyte over immobilised peptide; construct not described; also called heterodimeric receptor ITGαvβ6
T3 sequence (P06756 31-992 limits assumed, chain 1 of 2): as the sequence (P06756 31-992 limits assumed) above
T3 sequence (P18564 22-707 limits assumed, chain 2 of 2): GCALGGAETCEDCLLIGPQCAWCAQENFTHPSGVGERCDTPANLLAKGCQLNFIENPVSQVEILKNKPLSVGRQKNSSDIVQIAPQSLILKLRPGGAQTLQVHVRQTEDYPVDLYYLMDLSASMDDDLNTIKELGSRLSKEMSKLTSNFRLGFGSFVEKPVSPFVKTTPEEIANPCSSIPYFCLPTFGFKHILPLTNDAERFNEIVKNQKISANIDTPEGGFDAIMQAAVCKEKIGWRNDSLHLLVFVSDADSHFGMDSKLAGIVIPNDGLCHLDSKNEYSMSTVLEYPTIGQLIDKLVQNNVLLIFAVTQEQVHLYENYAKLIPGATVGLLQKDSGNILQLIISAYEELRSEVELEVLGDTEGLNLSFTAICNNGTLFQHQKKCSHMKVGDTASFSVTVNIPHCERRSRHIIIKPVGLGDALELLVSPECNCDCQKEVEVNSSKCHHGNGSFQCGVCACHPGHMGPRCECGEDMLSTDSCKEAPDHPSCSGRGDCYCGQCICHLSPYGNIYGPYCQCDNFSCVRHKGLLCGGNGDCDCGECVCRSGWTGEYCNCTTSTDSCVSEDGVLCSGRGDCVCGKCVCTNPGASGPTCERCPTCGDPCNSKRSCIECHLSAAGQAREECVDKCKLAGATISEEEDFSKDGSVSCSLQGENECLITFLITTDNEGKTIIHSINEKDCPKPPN

[18] = molecular target: T1, ITGαvβ3 heterodimer (analyte in SPR); assay: SPR, ITGαvβ3 against ITGαvβ6 on immobilised SFITGv6
[19] = molecular target: T2, integrin αvβ6 (ITGαvβ6) as expressed on …; assay: unlabeled peptide competing with 125I-SFITGv6 on HNO97 cells, 60 min; HNO97 cells, cell competition IC50
[20] = molecular target: T1, ITGαvβ3 heterodimer (analyte in SPR); assay: SPR (BiaCore X100), peptide immobilised on C1 chip, ITGαvβ3 as analyte, 1:1 Langmuir fit; SPR, ITGαvβ3 as analyte
[21] = molecular target: T2, integrin αvβ6 (ITGαvβ6) as expressed on …; assay: unlabeled peptide competing with 125I-SFITGv6 on HNSCC cell lines (HNO97, HNO399, HNO223), mean; mean over HNSCC cell lines
[22] = molecular target: T2, integrin αvβ6 (ITGαvβ6) as expressed on …; assay: unlabeled peptide (10^-10 to 10^-4 M) competing with the 125I-labeled peptide on HNO97 cells

integrin αvβ6 (ITGαvβ6) as expressed on human carcinoma cell lines and tumor tissue sections (human), sequence (P06756 31-1048, chain 1 of 2): as the sequence (P06756 31-1048, chain 1 of 2) above
integrin αvβ6 (ITGαvβ6) as expressed on human carcinoma cell lines and tumor tissue sections (human), sequence (P18564 22-788, chain 2 of 2, further chain): as the sequence (P18564 22-788, chain 2 of 2) above

A20FMDV2 (peptide)
IC50 [1]: 3.2 nM

CC(C)C[C@@H]1NC(=O)[C@H](CC(=O)O)NC(=O)CNC(=O)[C@H](CCCNC(=N)N)NC(=O)CNC(=O)[C@H]([C@@H](C)O)NC(=O)[C@@H](NC(=O)[C@H](CCCNC(=N)N)NC(=O)CN)CSSC[C@@H](C(=O)N[C@@H](Cc2ccc(O)cc2)C(=O)N2CCC[C@H]2C(=O)N[C@@H](CC(=O)O)C(=O)O)NC(=O)[C@H](CC(C)C)NC(=O)[C@H](CCCNC(=N)N)NC(=O)CNC1=O [SFLAP3, H2N-G-R-C1-T-G-R-G-D-L-G-R-L-C2-Y-P-D-COOH] (H-GRCTGRGDLGRLCYPD-OH; disulfide 3-13)
lower affinity for ITGαvβ3 than for ITGαvβ6 [2]: 10 fold
histochemical peptide staining result [3]: slightly fainter staining capacity
maximum accumulation in the tumor lesion ([4]; 60 min post injection): 3.6 % ID/g
accumulation in the tumor after decrease ([4]; 360 min after injection): ~2%
maximum accumulation in the tumor lesion ([5]; 60 min post injection, HNO233-xenografted as printed): 3.4 % ID/g
accumulation in the tumor after decrease ([5]; 360 min after injection): ~2%
proteolytic stability in human serum [6]: no degradation over a 24 hours; also recorded: shown for up to 24 hours

B1: SFLAP3 (peptide)
peptide: GRCTGRGDLGRLCYPD
modifications: disulfide 3-13 (inferred); not fully specified (C-terminus); also: 125I on the tyrosine in labelled tracer form
Kd [7]: 185 nM
IC50 [8]: 2.56 nM
fold lower affinity than for ITGαvβ6 [9]: 10 fold
percent of applied dose bound per 10^6 cells [10]: 10.6%
IC50 [11]: 3.25 nM
percent of applied dose bound per 10^6 cells [12]: 24.7%
percent of applied dose bound per 10^6 cells [13]: 19.7%
IC50 [14]: 3.5 nM
IC50 [15]: 4.7 nM
percent of applied dose bound per 10^6 cells [16]: 17.6%
Kd [17]: 7.4 nM

B2: SFITGv6 (peptide)
peptide: GRCTFRGDLMQLCYPD
modifications: disulfide 3-13 (inferred); not fully specified (C-terminus); also: 125I on the tyrosine in labelled tracer form
notes: Synthetic SFTI-1 derivate
fold lower affinity than for ITGαvβ6 [18]: 10 fold
IC50 [19]: 16.1 nM
Kd [20]: 185 nM
IC50 [21]: 14.1 nM
percent of applied dose bound per 10^6 cells [16]: 13.5%

B3: SFPF-10 (peptide)
peptide: GRCTFRGDKMQLCYPD
modifications: disulfide 3-13 (inferred); also: 125I on the tyrosine in labelled tracer form
notes: Originally selected peptide of the SFTI8Ph library
percent of applied dose bound per 10^6 cells [10]: 5%
percent of applied dose bound per 10^6 cells [12]: 7.2%
IC50 [22]: 18 nM
percent of applied dose bound per 10^6 cells [13]: 3.1%
percent of applied dose bound per 10^6 cells [16]: 11%
